Results from patent publication US20200172617A1.

Key:
[1] = target: LAG-3 (in the in vitro cell-based assays) (UniProt P18627); assay: in vitro cell-based assays; format not described
[2] = target: LAG-3 (as used in the Biacore assay) (UniProt P18627); assay: Biacore (SPR); format not described
soluble LAG-3 (human) = soluble LAG-3 (human) (UniProt P18627); assay: population PK/PD target-mediated drug disposition model (quasi-equilibrium) fitted to antibody and total soluble LAG-3 concentrations in patient serum; model estimate

B1: LAG525 (antibody, INN chains, looked up, V domains shown)
VH: QVQLVQSGAEVKKPGASVKVSCKASGFTLTNYGMNWVRQARGQRLEWIGWINTDTGEPTYADDFKGRFVFSLDTSVSTAYLQISSLKAEDTAVYYCARNPPYYYGTNNAEAMDYWGQGTTVTVSS
VL: DIQMTQSPSSLSASVGDRVTITCSSSQDISNYLNWYLQKPGQSPQLLIYYTSTLHLGVPSRFSGSGSGTEFTLTISSLQPDDFATYYCQQYYNLPWTFGQGTKVEIK
[1]
  Kd: 1.9 to 2.3 nM
[2]
  Kd: 0.1 nM
Soluble LAG-3 (human)
  Kd: 1.5 nM
